The text below walks through data of article PMC4118853, “Phage Orf Family Recombinases: Conservation of Activities and Involvement of the Central Channel in DNA Binding” (PLoS ONE, 2014).

Positions count from the first letter of the chain named. Names may count otherwise. “And” between values parts separate entries of the source, which are not always exact repeats. Equal values may be shown once.

Series [1] deals with the molecule itself. The series is described as follows: SEC; 1 mg/ml protein on a 24 ml Superose 6HR 10/30 column in 20 mM Tris-HCl pH8, 1 mM EDTA, 0.5 mM DTT, 250 mM KCl. On the technique in general: In gel filtration, larger molecules generally elute earlier.
Series [2] deals with T1, E. coli SSB (single-stranded DNA binding protein), wild type (E. coli, UniProt P0AGE0 1-178).
T1 construct: also called wt SSB; source: purified as described [13]
T1 sequence (P0AGE0 whole entry): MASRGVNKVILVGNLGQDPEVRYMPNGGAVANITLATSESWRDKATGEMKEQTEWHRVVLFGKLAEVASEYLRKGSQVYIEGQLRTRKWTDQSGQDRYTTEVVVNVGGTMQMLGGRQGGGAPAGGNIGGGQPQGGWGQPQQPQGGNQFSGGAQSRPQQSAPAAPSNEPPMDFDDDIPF
The series is described as follows: far-Western; purified SSB wt or mutant (0.5-5 µg) separated on 15% SDS-PAGE, blotted to PVDF, probed with 20-30 µg YbcN or Orf fused to MBP or GST; detected with anti-MBP or anti-GST antibodies. Conditions: both partners purified.

Series [3] concerns the molecule itself. The series is described as follows: SDS-PAGE of unboiled samples; purified protein on 12.5% SDS-PAGE without boiling and without a reducing agent, Coomassie blue.
The target in series [4] is T1, E. coli SSB (single-stranded DNA …). The series is described as follows: ELISA; SSB wt or mutant (0.5 µg) bound to the microtitre plate in PBS, GST fusion added for 1 hr at 37°C, detected with HRP-anti-GST antibody, A620nm. To be noted: both partners purified. Background: ELISA stands for enzyme-linked immunosorbent assay.
The target in series [5] is T2, MBP-YbcN (Escherichia coli cryptic prophage DLP12 …, UniProt Q47269 1-151).
T2 sequence: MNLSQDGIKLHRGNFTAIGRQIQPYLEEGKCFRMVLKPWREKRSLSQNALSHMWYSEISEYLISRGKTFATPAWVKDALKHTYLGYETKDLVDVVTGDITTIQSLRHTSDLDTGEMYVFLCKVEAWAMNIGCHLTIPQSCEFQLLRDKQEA
The series is described as follows: fluorescence anisotropy; apparent, per dimer; EMSA: 50 mM Tris-HCl pH 8.0, 5 mM EDTA (or 1 mM MgCl2), 1 mM DTT, 5% glycerol, 100 ug/ml BSA, on ice 15 min, 4% PAGE; anisotropy: 100 mM Tris-HCl pH 7.0, 10 nM. To be noted: protein: recombinant, tags: N-terminal MBP, chain copies: 2. In general terms: Polarisation of emitted light reports the rotation of a fluorescent probe.

For series [6], the target named is T3, MBP-Orf Q45A (Bacteriophage lambda, UniProt P03765 1-146, Q45A).
T3 sequence: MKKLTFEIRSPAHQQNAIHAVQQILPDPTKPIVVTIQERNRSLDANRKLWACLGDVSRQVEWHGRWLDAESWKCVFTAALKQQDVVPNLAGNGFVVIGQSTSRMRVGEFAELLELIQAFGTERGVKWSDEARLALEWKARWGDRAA
Described as above. Conditions: protein: recombinant, tags: N-terminal MBP, chain copies: 2.

Series [7] concerns the target T4, MBP-Orf V106E (Bacteriophage lambda, UniProt P03765 1-146, V106E).
T4 sequence: T3 sequence with A45Q, V106E
The series is described as above. To be noted: protein: recombinant, tags: N-terminal MBP, chain copies: 2.

Series [8] concerns the target T5, MBP-Orf K48A (Bacteriophage lambda, UniProt P03765 1-146, K48A).
T5 sequence: T3 sequence with A45Q, K48A
Described as above. To be noted: protein: recombinant, tags: N-terminal MBP, chain copies: 2.

The target in series [9] is T6, MBP-Orf W137A (Bacteriophage lambda, UniProt P03765 1-146, W137A).
T6 sequence: T3 sequence with A45Q, W137A
The description is as above. Conditions: protein: recombinant, tags: N-terminal MBP, chain copies: 2.

Series [10] concerns the target T7, MBP-Orf W50A (Bacteriophage lambda, UniProt P03765 1-146, W50A).
T7 sequence: T3 sequence with A45Q, W50A
The series is described as above. To be noted: protein: recombinant, tags: N-terminal MBP, chain copies: 2.

Series [11] concerns the target T8, MBP-Orf (Bacteriophage lambda, UniProt P03765 1-146).
T8 sequence: T3 sequence with A45Q
Described as above. Conditions: protein: recombinant, tags: N-terminal MBP, chain copies: 2.

For series [12], the target named is T9, MBP-Orf R103E (Bacteriophage lambda, UniProt P03765 1-146, R103E).
T9 sequence: T3 sequence with A45Q, R103E
Nature of the series: fluorescence anisotropy; dash in table; most severely deficient; EMSA: 50 mM Tris-HCl pH 8.0, 5 mM EDTA (or 1 mM MgCl2), 1 mM DTT, 5% glycerol, 100 ug/ml BSA, on ice 15 min, 4% PAGE; anisotropy: 100 mM Tris-HCl pH 7.0, 10 nM. Conditions: protein: recombinant, tags: N-terminal MBP, chain copies: 2.

Series [13] deals with T8, MBP-Orf. Nature of the series: EMSA; 5 mM EDTA; better than DS60; EMSA: 50 mM Tris-HCl pH 8.0, 5 mM EDTA (or 1 mM MgCl2), 1 mM DTT, 5% glycerol, 100 ug/ml BSA, on ice 15 min, 4% PAGE; anisotropy: 100 mM Tris-HCl pH 7.0, 10 nM. Conditions: protein: recombinant, tags: N-terminal MBP, chain copies: 2, label: 5'-32P on strand 1, blunt.
Series [14] concerns the molecule itself. The series is described as follows: static light scattering; 0.2 mg/ml protein in 100 mM Tris-HCl pH 7 at 25°C, Zetasizer µV; mass estimated for a spherical particle.
Series [15] deals with the molecule itself. The series is described as follows: SEC; 1 mg/ml protein on a 24 ml Superose 12 HR 10/30 column in 20 mM Tris-HCl pH 8.0, 1 mM EDTA, 0.5 mM DTT, 150 mM KCl.
Where [16] appears, read: label: 3'-fluorescein, single strand.
Setting [17] is: label: 3'-fluorescein on strand 1, blunt, central 20 nt bubble.

One may read the stoichiometry N as the number of molecules, sites or subunits per partner or assembly.

B1: MBP-YbcN (E. coli maltose binding protein fused to the N-terminus of DLP12 YbcN) (natural protein, E. coli (cryptic prophage DLP12), UniProt Q47269 1-151, looked up)
chain: T2 sequence
notes: YbcN (orf151), Orf-family protein of E. coli cryptic prophage DLP12; the gene was amplified from AB1157 genomic DNA, forward primer at the ATG; predicted monomer of the MBP fusion 60.4 kDa; Construct in pMALc2; also called DLP12 MBP-YbcN; orf151; source: E. coli DH5α or BL21 (DE3) Rosetta carrying pLB101, purified (amylose; additional stocks amylose and heparin agarose)
In the case of B1, the “stoichiometry N” value in series [1] came to 2. The binding result in series [2] is “binds”.

B2: GST-YbcN (N-terminal glutathione S-transferase fusion of DLP12 YbcN) (natural protein, E. coli (cryptic prophage DLP12), UniProt Q47269 1-151, looked up)
chain: T2 sequence
notes: YbcN (orf151), Orf-family protein of E. coli cryptic prophage DLP12; insert of pLB101 moved into pGEX-6P-1; predicted monomer of the GST fusion 44.6 kDa; higher oligomers are put down to dimer-dimer combinations; also called DLP12 GST-YbcN; source: E. coli BL21 Codon Plus carrying pLB108, purified (glutathione sepharose, heparin agarose, Q sepharose); not shown: GST, N-terminal, kept
Regarding B2, the “stoichiometry N” value in [3] stood at 4. For the same molecule, the binding result in series [4] is “binds”.

B3: SS60-fluorescein (ssDNA)
DNA: TTTGGTCTAACTTTACCGCTACTAAATGCCGCGGATTGGTTTCGCTGAATCAGGTTATTA
For B3, the Kd amounted to 4600 ± 275 nM in [5] (setting [16]); 272 ± 20.4 nM in [6] (setting [16]); 522 ± 12.4 nM in [7] (setting [16]); 622 ± 0.7 nM in series [8] (setting [16]); 628 ± 99.9 nM in [9] (setting [16]); 3540 ± 288 nM in series [10] (setting [16]). In addition, the Kd in series [11] (setting [16]) was 223 ± 72.6 nM. The binding result in [12] (setting [16]) was “no binding”.

B4: BB13 (structured_DNA)
DNA 1: B3 DNA
DNA 2: TAATAACCTGATTCAGCGAAACATTGTAGGTAAGCTTAGTAGCGGTAAAGTTAGACCAAA
As for B4, the binding result in series [13] (central 13 nt bubble) is given as “binds”.

B5: BB20-fluorescein (structured_DNA)
DNA 1: B3 DNA
DNA 2: TAATAACCTGATTCAGCGAATGACCGATAACGTCCACTTGAGCGGTAAAGTTAGACCAAA
As for B5, the Kd in series [5] (setting [17]) came to 1619 ± 3.2 nM; in series [6] (setting [17]), 264 ± 15.2 nM; in series [7] (setting [17]), 540 ± 73.2 nM; in series [8] (setting [17]), 551 ± 6.4 nM; in series [9] (setting [17]), 285 ± 1.9 nM; in series [10] (setting [17]) it was 1610 ± 418 nM. For the same molecule, the Kd in [11] (setting [17]) turned out to be 173 ± 20.9 nM. Moreover, the binding result in series [12] (setting [17]) is reported as “no binding”.

B6: BB5 (structured_DNA)
DNA 1: B3 DNA
DNA 2: TAATAACCTGATTCAGCGAAACCAATCGCAACCATTTAGTAGCGGTAAAGTTAGACCAAA
For B6, the binding result in series [13] (central 5 nt bubble) was “binds”.

B7: MBP-Orf (bacteriophage λ Orf fused to maltose binding protein), wild type (natural protein)
chain: T3 sequence with A45Q
notes: Orf (NinB) of bacteriophage λ, a 17 kDa protein; predicted MBP-Orf monomer 59.6 kDa; also called Orf wt; λ MBP-Orf; source: purified as described [13]
Take B7: the binding result in series [14] and in series [2] was “binds” in each case.

B8: MBP-Orf Q45A (natural protein, bacteriophage λ)
chain: T3 sequence
notes: Orf (NinB) of bacteriophage λ with Q45A; Mutant derivative in pMALc2; source: E. coli BL21-AI carrying the pMALc2 construct, purified (amylose, heparin-agarose)
As to B8, the “stoichiometry N” value in series [15] worked out at 2. The binding result in series [2] is reported as “binds”.

B9: MBP-Orf W50A (natural protein, bacteriophage λ)
chain: T3 sequence with A45Q, W50A
notes: Orf (NinB) of bacteriophage λ with W50A; Mutant derivative in pMALc2; source: E. coli BL21-AI carrying the pMALc2 construct, purified (amylose, heparin-agarose)
For B9, the “stoichiometry N” value in [15] was 2. Further, in [2], the binding result is “binds”.

B10: MBP-Orf R103E (natural protein, bacteriophage λ)
chain: T3 sequence with A45Q, R103E
notes: Orf (NinB) of bacteriophage λ with R103E; Mutant derivative in pMALc2; source: E. coli BL21-AI carrying the pMALc2 construct, purified (amylose, heparin-agarose)
Regarding B10, in series [15], the “stoichiometry N” value turned out to be 2. Besides, in [2], the binding result is given as “binds”.

B11: MBP-Orf K48A (natural protein, bacteriophage λ)
chain: T3 sequence with A45Q, K48A
notes: Orf (NinB) of bacteriophage λ with K48A; Mutant derivative in pMALc2; One paragraph calls residue 48 Arg48, others Lys48; source: E. coli BL21-AI carrying the pMALc2 construct, purified (amylose) as described [13]
Turning to B11, in series [15], the “stoichiometry N” value worked out at 2. Moreover, in series [2], the binding result is “binds”.

B12: MBP-Orf W137A (natural protein, bacteriophage λ)
chain: T3 sequence with A45Q, W137A
notes: Orf (NinB) of bacteriophage λ with W137A; Mutant derivative in pMALc2; source: E. coli BL21-AI carrying the pMALc2 construct, purified (amylose) as described [13]
B12: the “stoichiometry N” value in [15] came to 2. Moreover, the binding result in [2] is reported as “binds”.

B13: MBP-Orf V106E (natural protein, bacteriophage λ)
chain: T3 sequence with A45Q, V106E
notes: Orf (NinB) of bacteriophage λ with V106E; Mutant derivative in pMALc2; Tends to form multimers or aggregates; source: E. coli BL21-AI carrying the pMALc2 construct, purified (amylose, heparin-agarose)
B13: in series [15], the “stoichiometry N” value was 2 and 4. Moreover, the binding result in [2] is reported as “binds”.
